Biological target: the protein biologic (purified DNASE1-Fc enzyme biologic analysed by size-exclusion chromatography with light scattering) (not stated (murine and human isoforms were made)) (UniProt P49183)
Assay: SEC-MALS; size-exclusion chromatography with light scattering; two separate concentrations of sample loading; single peak; hydrodynamic radius 5.3 nm

stoichiometry N: 2
Substance: the protein biologic (purified DNASE1-Fc enzyme biologic analysed by size-exclusion chromatography with light scattering) (from UniProt P49183 23-284) (Fc fusion)

Source: article PMC11383374
